Here are results for 2 molecules from US11123413B2, “Carbapenemases for use with antibiotics for the protection of the intestinal microbiome” (priority 2015, dated 2021).

“Also recorded” adds a separate entry of the source.

One series relates to E. coli (ATCC 25922). The series is described as follows: Antibiotic inactivation screening assay via E. coli growth (96 well plate, OD625). Type of series: cell-based. Conditions: for activity against cephalosporins and carbapenems / antibiotic degradation profile compared with P3A: 10, 100 or 1000 ng/ml enzyme; for inhibition by beta-lactamase inhibitors: SAM, TZP, CAZ/AVI combinations; for degradation of carbapenems: meropenem, imipenem, ertapenem, doripenem. As for the experimental part: To mimic the activity of the carbapenemase enzymes, P2A, NDM, and KPC in the gut in the presence of high antibiotic concentrations, a novel screening assay was performed using a 96 well plate format. The assay was performed by mixing 10, 100 or 1000 μg/ml of the antibiotics, AMP: ampicillin, SAM: ampicillin/sulbactam, PIP: pipercillin, TZP: pipercillin/taxobactam, CRO: ceftriaxone, CTX: cefotaxime, CFZ: cefozolin, CXM: cefuroxime, CFP: cefoperazone, FEP: cefepime, CAZ: ceftazidime, MEM: meropenem, IPM: imipenem, ERT: ertapenem, DOR: doripenem, ATM: aztreonam, CDR: cefdinir; LEX: cephalexin; and CAZ/AVI: […]/avibactam with purified P2A, NDM, KPC, and P3A at concentrations of 10, 100, or 1000 ng/ml in each well of a 96 well microtiter plate. E. coli (ATCC 25922) was added immediately after the addition of the beta-lactamase enzymes, and the plates were incubated overnight. Bacterial growth was quantified by measuring the absorbance at 625 nm (OD625) in a Spectramax 384 Plus plate reader. The analysis was performed twice for each antibiotic. The beta-lactamase activity was determined as positive or negative based on the appearance of bacterial growth in the individual wells. An OD625 of 1.0 or greater indicated maximal bacterial growth, therefore complete antibiotic degradation and beta-lactamase activity. […] FIGS. 21A, 21B, and 21C display the comparison of the four beta-lactamases, P3A (SYN-004), P2A, NDM, and KPC with all 16 antibiotics at beta-lactamase concentrations of 10, 100, or 1000 ng/ml. […]

Series [1] can be described thus: CENTA chromogenic beta-lactamase biological activity assay (P3A standard curve). Type of series: biochemical. As to conditions: for stability of enzyme activity in cell lysates under differing storage conditions: fresh, frozen (−80° C.) or overnight at 4° C. lysate; for relative potency for CENTA degradation: midpoint of sigmoid curve, protein concentration vs OD405, P3A=1.0; for β-Lactamase: purified carbapenemase, P3A standard. As for the experimental part:
Biological activity of the carbapenemases, P2A, NDM, and KPC, present in the E. coli cell lysates were evaluated in a microtiter plate assay using CENTA as the chromogenic substrate (Bebrone et al. Antimicrob. Agents Chemother (2001) 45:1868-1871; van Berkel et al., J. Med. Chem. (2013) 56:6945-6953). Briefly, the assay was performed in a 50 mM NaH2PO4 buffer, pH 7.0 with supplementation of 100 uM ZnSO4, with CENTA (Calbiochem Cat #219475) at 50 ug/ml. The assays were run using purified P3A protein for the standard curve at protein concentrations of 0 ng/ml, 3 ng/ml, 6 ng/ml, 8 ng/ml, 10 ng/ml, 15 ng/ml, 20 ng/ml and 40 ng·ml. The plates were read at 405 nm after a 30 minute incubation using a microtiter plate reader. Cell lysates from the bacterial strains showing the highest protein expression levels by SDS-PAGE were evaluated for biological activity, which included P2A strains 5, 15, 20, 21, and 23, NDM strains 53, 58, 63, 68, and 69, and KPC strains 94, 96, 99, 100, 101, 102, 103, and 104 (Table 11). In addition, fresh lysate, frozen (−80° C.) lysate, or lysate stored overnight at 4° C. from strain P2A-21 were compared, and fresh and frozen (−80° C.) lysates from strain NDM-63 were compared to assess the stability of enzyme activity under differing storage conditions. All other lysates were kept frozen at −80° C. until assayed (Table 11).
Bacterial lysates were analyzed for protein expression by SDS-PAGE. Strong NDM expression was detected in all strains with good reproducibility between shake flasks (FIG. 4). Strong expression of P2A and KPC was also detected with good reproducibility between shake flasks (FIG. 5). In all cases, the vast majority of the protein was detected in the soluble fractions (FIG. 4 and FIG. 5). Biological activity was assessed in the cell lysates using the CENTA assay as described with P3A as the standard. […] The highest biological activity for NDM was from strain NDM-68.
Aliquots of bacteria were collected early in the fermentation cycle, 16 hours, for P2A and NDM, and 32 hours for KPC, prior to enzyme expression induction, and late in the cycle (48 hours) and subjected to SDS-PAGE (FIG. 6 and FIG. 7) and biological activity analyses (Table 15). […] Fermenters A, B, and C, reached high ODs. […] Bioreactor expression is achieved by changing of growth conditions, lowering phosphate conditions, and/or changing the promoter.
Frozen cell pellets retained from the fermenter studies, Fermenter A, P2A, Fermenter B, NDM, or from the shake flask studies, shake flask A, KPC, were lysed at 3×7000 psi in a Panda table top cell homogenizer. The lysate was spun at 45000 g for 1 hour, supernatants collected and pH adjusted to 5.5 with 1 M MES. The supernatants were spun at 45000 g for 30 minutes, to remove precipitated debris and filtered through a 0.45 um filter. The filtered supernatants were subjected to cation-exchange chromatography using an SP-sepharose column. NDM was subjected to an additional purification step using a hydrophobic column, phenyl sepharose. The fractions containing the peak levels of protein were concentrated and dialyzed against a 20 mM HEPES, pH 7.5, 150 mM NaCl buffer. The P2A and NDM samples were supplemented with 100 uM ZnSO4 in all steps of the purification process. Purified enzymes yields were calculated to be approximately 600 mg of protein per liter. Purified proteins were analyzed by SDS-PAGE (FIG. 8) and for biological activity (Table 16).
As different beta-lactamase enzymes display differential affinity and kinetics with diverse substrates, including antibiotics and the CENTA reagent, it was possible to determine the relative specific activities of P2A, NDM, and KPC compared to P3A for CENTA as a substrate now that purified proteins were available and therefore, protein concentrations were known. […]

The mark [2] stands for this setting: fermenter cell lysate, 16 hr, Bioreactor A or B (standard phosphate).
Where [3] appears, read: fermenter cell lysate, 48 hr, Bioreactor A, B or D (standard phosphate).

B1: P2A: broad spectrum carbapenemase, class B metallo-enzyme requiring zinc, SEQ ID NO: 37; P2A-21 = product of strain SYT-PP0602-21 (protein)
chain: ETGTISISQLNKNVWVHTELGYFNGEAVPSNGLVLNTSKGLVLVDSSWDNKLTKELIEMVEKKFQKRVTDVIITHAHADRIGGITALKERGIKAHSTALTAELAKNSGYEEPLGDLQTITSLKFGNTKVETFYPGKGHTEDNIVVWLPQYQILAGGCLVKSAEAKDLGNVADAYVNEWSTSIENVLKRYGNINSVVPGHGEVGDKGLLLHTLDLLK
Turning to B1, in the series with E. coli (ATCC 25922), the “activity against cefepime and ceftazidime compared to NDM” value is “activity was reduced against the cephalosporins, cefepime and ceftazidime”; the “activity against cephalosporins and carbapenems” value was “good activity against all carbapenems and most cephalosporins”; the “antibiotic degradation profile compared with P3A” value is “broader degradation profile than P3A”; the “inhibition by beta-lactamase inhibitors” value is “resistant to inhibition by sulbactam, tazobactum, and avibactam”. In addition, the degradation of carbapenems entry in the series on E. coli (ATCC 25922) was “efficiently degraded meropenem, imipenem, ertapenem, and doripenem”. This molecule showed an Activity in series [1] (bacterial cell lysate, shake flask culture, Flask A, CENTA, P3A as the standard) of 19.6 mg/L. The molecule also showed an Activity in series [1] (bacterial cell lysate, shake flask culture, Flask B, CENTA, P3A as the standard) of 17.0 mg/L. This molecule also showed an Activity in series [1] (setting [2]) of 3.2 mg/L. Further, the Activity in series [1] (setting [3]) turned out to be 59.7 mg/L. Moreover, in series [1], the “stability of enzyme activity in cell lysates under differing storage conditions” value was “No difference in activity” and the “relative potency for CENTA degradation” value is given as 0.12. Further, in series [1] (CENTA), the β-Lactamase was determined as 317.7 mg/L.

B2: NDM: New Delhi metallo-β-lactamase NDM-1; NDM-68 = product of strain STY-NP1602-68 (STII Δ35, N-terminal GQQMETG) (protein)
chain: GQQMETGDQRFGDLVFRQLAPNVWQHTSYLDMPGFGAVASNGLIVRDGGRVLVVDTAWTDDQTAQILNWIKQEINLPVALAVVTHAHQDKMGGMDALHAAGIATYANALSNQLAPQEGMVAAQHSLTFAANGWVEPATAPNFGPLKVFYPGPGHTSDNITVGIDGTDIAFGGCLIKDSKAKSLGNLGDADTEHYAASARAFGAAFPKASMIVMSHSAPDSRAAITHTARMADKLR
In the case of B2, in the series on E. coli (ATCC 25922), the “activity against cephalosporins and carbapenems” value was “efficiently degraded all tested cephalosporins and carbapenems”; the “antibiotic degradation profile compared with P3A” value is on record as “broader degradation profile than P3A”; the “inhibition by beta-lactamase inhibitors” value is “resistant to inhibition by sulbactam, tazobactum, and avibactam; also recorded: least affected by sulbactam”; the degradation of carbapenems result was “efficiently degraded meropenem, imipenem, ertapenem, and doripenem”. Besides, the Activity in series [1] (setting [2]) worked out at 6.6 mg/L. The Activity in series [1] (fermenter cell lysate, 16 hr, Bioreactor C (extra zinc and extra phosphate)) is 5.8 mg/L. The Activity in series [1] (setting [3]) was 520.0 mg/L. Further, the Activity in series [1] (fermenter cell lysate, 48 hr, Bioreactor C (extra zinc and extra phosphate)) was 14.1 mg/L. Also, in series [1], the “stability of enzyme activity in cell lysates under differing storage conditions” value is reported as “No difference in activity” and the “relative potency for CENTA degradation” value is reported as 0.71. The molecule further had a β-Lactamase in series [1] (CENTA) of 1703.8 mg/L.
